B1: DTDLDTEAFA8YIPADDDFQ (peptide)
peptide: DTDLDTEAFA[Aze]YIPADDDFQ
B2: DTDLDAEAVA8YIPADDDFQ (peptide)
peptide: DTDLDAEAVA[Aze]YIPADDDFQ
B3: DTDLDLEALA8YIPADDDFQ (peptide)
peptide: DTDLDLEALA[Aze]YIPADDDFQ
B4: Control peptide DTD20, DTDLDLEMLApYIPMDDDFQ (peptide)
peptide: DTDLDLEMLAPYIPMDDDFQ
B5: DTDLDLEALA5YIPADDDFQ (peptide)
peptide: DTDLDLEALA[b‑thioproline]YIPADDDFQ
B6: DTDLDIEAVA8YIPADDDFQ (peptide)
peptide: DTDLDIEAVA[Aze]YIPADDDFQ
B7: DTDLDTEALA8YIPADDDFQ (peptide)
peptide: DTDLDTEALA[Aze]YIPADDDFQ
B8: DTDLDVEAYA8YIPADDDFQ (peptide)
peptide: DTDLDVEAYA[Aze]YIPADDDFQ
B9: DTDLDAEAIA8YIPADDDFQ (peptide)
peptide: DTDLDAEAIA[Aze]YIPADDDFQ
B10: DTDLDVEAIA8YIPADDDFQ (peptide)
peptide: DTDLDVEAIA[Aze]YIPADDDFQ
B11: DTDLDTEAYA8YIPADDDFQ (peptide)
peptide: DTDLDTEAYA[Aze]YIPADDDFQ
B12: DTDLDIEAIA8YIPADDDFQ (peptide)
peptide: DTDLDIEAIA[Aze]YIPADDDFQ
B13: DTDLDVEAFA8YIPADDDFQ (peptide)
peptide: DTDLDVEAFA[Aze]YIPADDDFQ

Where no end group is shown, it is not given here. [ ]: non-standard residue; d: D form. Aze = O=C(O)[C@@H]1CCN1

One experiment addresses EGLN1. Nature of the experiment: cell-based or functional assay.
As to B1, the “Activity (%)*” value stood at 17.4%.

B2: the “Activity (%)*” value came out at 10%.

In the case of B3, the “Activity (%)*” value is 78.9%.

With B4, the “Activity (%)*” value amounted to 100%.

For B5, the “Activity (%)*” value was 8.93%.

As to B6, the “Activity (%)*” value amounted to 6.35%.

As for B7, the “Activity (%)*” value came out at 11.4%.

For the molecule B8, the “Activity (%)*” value is 32.3%.

Turning to B9, the “Activity (%)*” value worked out at 6.68%.

B10: the “Activity (%)*” value was 7.96%.

Regarding B11, the “Activity (%)*” value stood at 25.1%.

With B12, the “Activity (%)*” value was 18.3%.

For the molecule B13, the “Activity (%)*” value is 21.2%.

The target in the next experiment is EGLN2. Nature of the experiment: cell-based or functional assay.
On to B1, for which the “Activity (%)*” value came to 8.9%.

Regarding B2, the “Activity (%)*” value worked out at 3.36%.

As to B3, the “Activity (%)*” value was determined as 62%.

As to B4, the “Activity (%)*” value worked out at 100%.

In the case of B5, the “Activity (%)*” value came out at 7.9%.

With B6, the “Activity (%)*” value worked out at 1.96%.

As to B7, the “Activity (%)*” value was found to be 8.52%.

Consider B8, for which the “Activity (%)*” value came to 27.2%.

Regarding B9, the “Activity (%)*” value was 1.88%.

Turning to B10, the “Activity (%)*” value was 2.81%.

B11: the “Activity (%)*” value was 17%.

With B12, the “Activity (%)*” value stood at 10%.

On to B13, for which the “Activity (%)*” value stood at 13.9%.

The target of the next experiment is EGLN3. The experiment can be described thus: cell-based or functional assay.
On to B4, for which the “Activity (%)*” value was 119%.

A further experiment deals with EGLN1. Nature of the experiment: cell-based or functional assay. The source holds these as a separate data set.
Consider B4, for which the “Activity (%)*” value turned out to be 100%.

The target in another experiment is EGLN2. The experiment can be described thus: cell-based or functional assay. The source holds these as a separate data set.
B4: the “Activity (%)*” value was determined as 100%.

The next experiment deals with EGLN3. Nature of the experiment: cell-based or functional assay. This is another data set of the same source.
Consider B1, for which the “Activity (%)” value turned out to be 18.7%.

With B2, the “Activity (%)” value came out at 17.2%.

On to B3, for which the “Activity (%)” value was 169%.

As for B4, the “Activity (%)” value turned out to be 119%.

On to B5, for which the “Activity (%)” value came to 11.1%.

B6: the “Activity (%)” value worked out at 18.8%.

For the molecule B7, the “Activity (%)” value worked out at 80.1%.

As to B8, the “Activity (%)” value was 33.5%.

With B9, the “Activity (%)” value is 9.72%.

In the case of B10, the “Activity (%)” value was 14.8%.

As for B11, the “Activity (%)” value was 29.7%.

For B12, the “Activity (%)” value came to 31.2%.

Regarding B13, the “Activity (%)” value was 24.5%.

Values taken from patent US20080113383A1 (FIBRO GEN, published 2008).
